Test results from patent US20050260730A1 (published 2005).
Non-standard residues stand in square brackets, D forms with d. Phe(4-F) = N[C@@H](Cc1ccc(F)cc1)C(=O)O

Biological target: CDK2/cyclin A complex (human, UniProt P24941 1-298; P20248 173-432)
Assay: cell-based or functional assay

Binder | CDK2/cyclin A kinase activity IC50 [µM]
H-RRL[Phe(4-F)]-NH2 (SMILES CC(C)C[C@H](NC(=O)[C@H](CCCNC(=N)N)NC(=O)[C@@H](N)CCCNC(=N)N)C(=O)N[C@@H](Cc1ccc(F)cc1)C(N)=O) [H-Arg-Arg-Leu-(p-F-Phe)-NH2] | 50
Ac-RRLNF-NH2 [Ac-Arg-Arg-Leu-Asn-Phe-NH2] | > 50
